Assay type in all cases: cell-based
One assay deals with RAJI cells. Description: JNG assay, co-culture with RAJI cells. Conditions: JNG cells expressing construct, co-culture with Raji. An outline of the steps:
(§1)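 Jurkat NFAT-GFP (JNG) cells stably transduced with SARs by lentivirus, with drug selection where the construct carried a resistance gene, then co-cultured with target cells at E:T ~1:2 for ~4–18 h. % GFP-positive cells measured by FACS against parental JNG; +/- to 5+ correspond to ~5–50% GFP-positive.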

The subject of another assay is LNCaP cells. Description: JNG assay, co-culture with LNCaP cells. Conditions: for NFAT-GFP ASSAY: LNCaP: co-culture with LNCaP; for NFAT-GFP ASSAY: LNCaP with PSMA-USC76-chVH-G4S-ULBP2-S3: LNCaP in presence of SAR adaptor PSMA-USC76-chVH-G4S-ULBP2-S3. An outline of the steps:
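Drug-selected populations of SAR-expressing Jurkat-NFAT-GFP cells meet target cells (about 1:2 E:T) for roughly 4–18 h. Flow cytometry gives % GFP+ cells, graded +/- to 5+ (≈5% to ≈50%) relative to the parental control.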

The next assay concerns L363 cells. Description: JNG assay, co-culture with L363 cells. The note with it: L363 cells (BCMA+), only in the presence of SAR adaptor BCMA-FHVH-74-EZIP (SEQ ID NO: 23119). In a few lines:
as §1

B1: 22057 (protein)
chain: MALPVTALLLPLALLLHAARPQLQLQESGPGLVKPSETLSLTCTVSGDSISSGDYYWGWIRQPPGKGLEWIGHIYYSGVTYYNPSLKSRVTISVDTSRNQFSLKLSSVTAADTAVYYCTREDSSNWRSRGQGTLVTVSSLEGSEVKTDSTDHVKPKETENTKQPSKSCHKPKAIVHTEKVNMMSLTVLGLRMLFAKTVAVNFLLTAKLFFLRAKRSGSGVKQTLNFDLLKLAGDVESNPGPTSMDWIWRILFLVGAATGAHSFEVQLVESGGGVVQPGRSLRLSCAASGFSFSGYGMHWVRQAPGKGLEWVAYISYDGSNKYYADSVKGRFTISRDNSKNTLYLQMNSLRAEDTAVYYCAKDPAWGLRLGESSSYDFDIWGQGTMVTVSSTRDKTHTCPPCPAGRADCGFTSESYQQGVLSATILYEILLGKATLYAVLVSALVLMAMVKRKDFRAKRSGSGATNFSLLKQAGDVEENPGPSRGHMTEYKPTVRLATRDDVPRAVRTLAAAFADYPATRHTVDPDRHIERVTELQELFLTRVGLDIGKVWVADDGAAVAVWTTPESVEAGAVFAEIGPRMAELSGSRLAAQQQMEGLLAPHRPKEPAWFLATVGVSPDHQGKGLGSAVVLPGVEAAERAGVPAFLETSAPRNLPFYERLGFTVTADVEVPEGPRTWCMTRKPGA
In the case of B1, the “NFAT-GFP ASSAY: Raji” value in the assay with RAJI cells is “+/- (refer to approximately 5%, 10%, 20%, 30%, 40% and 50% GFP positive cells)”. In the assay with LNCaP cells, the “NFAT-GFP ASSAY: LNCaP” value is “+ (refer to approximately 5%, 10%, 20%, 30%, 40% and 50% GFP positive cells)”.

B2: 22058 (protein)
chain: MALPVTALLLPLALLLHAARPQLQLQESGPGLVKPSETLSLTCTVSGDSISSGDYYWGWIRQPPGKGLEWIGHIYYSGVTYYNPSLKSRVTISVDTSRNQFSLKLSSVTAADTAVYYCTREDSSNWRSRGQGTLVTVSSLEDLKNVFPPEVAVFEPSEAEISHTQKATLVCLATGFYPDHVELSWWVNGKEVHSGVCTDPQPLKEQPALNDSRYCLSSRLRVSATFWQNPRNHFRCQVQFYGLSENDEWTQDRAKPVTQIVSAEAWGRADCGFTSESYQQGVLSATILYEILLGKATLYAVLVSALVLMAMVKRKDSRGRAKRSGSGATNFSLLKQAGDVEENPGPTSMDWIWRILFLVGAATGAHSFEVQLVESGGGVVQPGRSLRLSCAASGFSFSGYGMHWVRQAPGKGLEWVAYISYDGSNKYYADSVKGRFTISRDNSKNTLYLQMNSLRAEDTAVYYCAKDPAWGLRLGESSSYDFDIWGQGTMVTVSSTRIQNPDPAVYQLRDSKSSDKSVCLFTDFDSQTNVSQSKDSDVYITDKCVLDMRSMDFKSNSAVAWSNKSDFACANAFNNSIIPEDTFFPSPESSCDVKLVEKSFETDTNLNFQNLSVIGFRILLLKVAGFNLLMTLRLWSSRAKRSGSGVKQTLNFDLLKLAGDVESNPGPSRGHMTEYKPTVRLATRDDVPRAVRTLAAAFADYPATRHTVDPDRHIERVTELQELFLTRVGLDIGKVWVADDGAAVAVWTTPESVEAGAVFAEIGPRMAELSGSRLAAQQQMEGLLAPHRPKEPAWFLATVGVSPDHQGKGLGSAVVLPGVEAAERAGVPAFLETSAPRNLPFYERLGFTVTADVEVPEGPRTWCMTRKPGA
Turning to B2, the “NFAT-GFP ASSAY: Raji” value with RAJI cells is “+/- (refer to approximately 5%, 10%, 20%, 30%, 40% and 50% GFP positive cells)”. Also, in the assay on LNCaP cells, the “NFAT-GFP ASSAY: LNCaP” value is “+ (refer to approximately 5%, 10%, 20%, 30%, 40% and 50% GFP positive cells)”.

B3: 22288 (protein)
chain: MALPVTALLLPLALLLHAARPACLFNQEVQIPLTESYCGPCPKNWICYKNNCYQFFDESKNWYESQASCMSQNASLLKVYSKEDQDLLKLVKSAHWMGLVHIPTNGSWQWEDGSILSPNLLTIIEMQKGDCALYASSFKGYIENCSTPNTYICMQRTVLEGQPKANPTVTLFPPSSEELQANKATLVCLISDFYPGAVTVAWKADGSPVKAGVETTKPSKQSNNKYAASSYLSLTPEQWKSHRSYSCQVTHEGSTVEKTVAPTECSPIKTDVITMDPKDNCSKDANDTLLLQLTNTSAYYMYLLLLLKSVVYFAIITCCLLRRTAFCCNGEKSRAKRSGSGATNFSLLKQAGDVEENPGPTSATMDWIWRILFLVGAATGAHSGPQVQLQESGGGLAQAGGSLRLSCAASGRTFSMGWFRQAPGKEREFVAAITYSGGSPYYASSVRGRFTISRDNAKNTVYLQMNSLKPEDTAVYYCAANPTYGSDWNAENWGQGTQVTVSSGSGGGGSGGGGSGGGGSFEDLFNQEVQIPLTESYCGPCPKNWICYKNNCYQFFDESKNWYESQASCMSQNASLLKVYSKEDQDLLKLVKSAHWMGLVHIPTNGSWQWEDGSILSPNLLTIIEMQKGDCALYASSFKGFIENCSTPNTYICMQRTVTRASTKGPSVFPLAPSSKSTSGGTAALGCLVKDYFPEPVTVSWNSGALTSGVHTFPAVLQSSGLYSLSSVVTVPSSSLGTQTYICNVNHKPSNTKVDKRVEPKSCEVKTDSTDHVKPKETENTKQPSKSCHKPKAIVHTEKVNMMSLTVLGLRMLFAKTVAVNFLLTAKLFFLRAKRSGSGVKQTLNFDLLKLAGDVESNPGPSRGHMTEYKPTVRLATRDDVPRAVRTLAAAFADYPATRHTVDPDRHIERVTELQELFLTRVGLDIGKVWVADDGAAVAVWTTPESVEAGAVFAEIGPRMAELSGSRLAAQQQMEGLLAPHRPKEPAWFLATVGVSPDHQGKGLGSAVVLPGVEAAERAGVPAFLETSAPRNLPFYERLGFTVTADVEVPEGPRTWCMTRKPGA
B3: the “NFAT-GFP ASSAY: Raji” value with RAJI cells is 3+ (refer to approximately 5%, 10%, 20%, 30%, 40% and 50% GFP positive cells). In addition, the “NFAT-GFP ASSAY: LNCaP with PSMA-USC76-chVH-G4S-ULBP2-S3” value in the assay on LNCaP cells is “+ (refer to approximately 5%, 10%, 20%, 30%, 40% and 50% GFP positive cells)”.

B4: 22286 (protein)
chain: MALPVTALLLPLALLLHAARPACLFNQEVQIPLTESYCGPCPKNWICYKNNCYQFFDESKNWYESQASCMSQNASLLKVYSKEDQDLLKLVKSAHWMGLVHIPTNGSWQWEDGSILSPNLLTIIEMQKGDCALYASSFKGYIENCSTPNTYICMQRTVLEGQPKANPTVTLFPPSSEELQANKATLVCLISDFYPGAVTVAWKADGSPVKAGVETTKPSKQSNNKYAASSYLSLTPEQWKSHRSYSCQVTHEGSTVEKTVAPTECSPIKTDVITMDPKDNCSKDANDTLLLQLTNTSAYYMYLLLLLKSVVYFAIITCCLLRRTAFCCNGEKSRAKRSGSGATNFSLLKQAGDVEENPGPTSATMDWIWRILFLVGAATGAHSGPQVQLQESGGGLAQAGGSLRLSCAASGRTFSMGWFRQAPGKEREFVAAITYSGGSPYYASSVRGRFTISRDNAKNTVYLQMNSLKPEDTAVYYCAANPTYGSDWNAENWGQGTQVTVSSGSGGGGSGGGGSGGGGSFEQVQLQQPGAELVKPGASVKMSCKASGYAFSSYWINWMKQKPGQGLEWIGQIYPGDGDTNYNGKFKGRATLTADTSSSTAYMQLSSLTSEDSAVYFCARSITTVVGCAMDYWGQGTSVTVSSTRASTKGPSVFPLAPSSKSTSGGTAALGCLVKDYFPEPVTVSWNSGALTSGVHTFPAVLQSSGLYSLSSVVTVPSSSLGTQTYICNVNHKPSNTKVDKRVEPKSCEVKTDSTDHVKPKETENTKQPSKSCHKPKAIVHTEKVNMMSLTVLGLRMLFAKTVAVNFLLTAKLFFLRAKRSGSGVKQTLNFDLLKLAGDVESNPGPSRGHMTEYKPTVRLATRDDVPRAVRTLAAAFADYPATRHTVDPDRHIERVTELQELFLTRVGLDIGKVWVADDGAAVAVWTTPESVEAGAVFAEIGPRMAELSGSRLAAQQQMEGLLAPHRPKEPAWFLATVGVSPDHQGKGLGSAVVLPGVEAAERAGVPAFLETSAPRNLPFYERLGFTVTADVEVPEGPRTWCMTRKPGA
As to B4, the “NFAT-GFP ASSAY: Raji” value in the assay on RAJI cells was “+ (refer to approximately 5%, 10%, 20%, 30%, 40% and 50% GFP positive cells)”. Moreover, in the assay on LNCaP cells, the “NFAT-GFP ASSAY: LNCaP with PSMA-USC76-chVH-G4S-ULBP2-S3” value is “+ (refer to approximately 5%, 10%, 20%, 30%, 40% and 50% GFP positive cells)”.

B5: SEQ ID NO: 22293: bispecific CD19xCD20 SAR with RZIP leucine zipper domain on hu-mR005-1 vL and CD20-VHH-USC1-2HCD26 on the vH domain (protein)
chain: MALPVTALLLPLALLLHAARPACMDPDLEIRAAFLRQRNTALRTEVAELEQEVQRLENEVSQYETRYGPLGGGKGTGGGGSGGGGSGGGGSEFDIQMTQSPSSLSASVGDRVTITCKASDHINNWLAWYQQKPGQAPKLLIYGATTLETGVPSRFSGSGSGTDYTLTISSLQPEDFATYYCQQSWNTPWTFGQGTKLEIKRLEDLKNVFPPEVAVFEPSEAEISHTQKATLVCLATGFYPDHVELSWWVNGKEVHSGVCTDPQPLKEQPALNDSRYCLSSRLRVSATFWQNPRNHFRCQVQFYGLSENDEWTQDRAKPVTQIVSAEAWGRADCGFTSESYQQGVLSATILYEILLGKATLYAVLVSALVLMAMVKRKDSRGRAKRSGSGATNFSLLKQAGDVEENPGPTSATMDWIWRILFLVGAATGAHSGPEVQLVESGGGLVQAGGSLRLSCAASGRTFSMGWFRQAPGKEREFVAAITYSGGSPYYADSVKGRFTISRDNAKNTVYLQMNSLKPEDTAVYYCAANPTYGSDWNAENWGQGTQVTVSSGSGGGGSGGGGSGGGGSFEQVQLQQPGAELVKPGASVKMSCKASGYAFSSYWINWMKQKPGQGLEWIGQIYPGDGDTNYNGKFKGRATLTADTSSSTAYMQLSSLTSEDSAVYFCARSITTVVGCAMDYWGQGTSVTVSSTRIQNPDPAVYQLRDSKSSDKSVCLFTDFDSQTNVSQSKDSDVYITDKCVLDMRSMDFKSNSAVAWSNKSDFACANAFNNSIIPEDTFFPSPESSCDVKLVEKSFETDTNLNFQNLSVIGFRILLLKVAGFNLLMTLRLWSSRAKRSGSGVKQTLNFDLLKLAGDVESNPGPSRGHMTEYKPTVRLATRDDVPRAVRTLAAAFADYPATRHTVDPDRHIERVTELQELFLTRVGLDIGKVWVADDGAAVAVWTTPESVEAGAVFAEIGPRMAELSGSRLAAQQQMEGLLAPHRPKEPAWFLATVGVSPDHQGKGLGSAVVLPGVEAAERAGVPAFLETSAPRNLPFYERLGFTVTADVEVPEGPRTWCMTRKPGA
On to B5, for which the GFP induction result with L363 cells is recorded as “robust induction of GFP”. Also, the “redirection to LNCaP cells” value with LNCaP cells (LNCaP (PSMA+) cells in the presence of SAR adaptor CD8SP-PSMA-USC76-chVH-EZIP (SEQ ID NO: 23118)) was “could be redirected”.

Source of the values: patent US20230212319A1, “NOVEL ANTIGEN BINDING DOMAINS AND SYNTHETIC ANTIGEN RECEPTORS INCORPORATING THE SAME” (University of Southern California, priority 2020, published 2023).
